Like-named read-outs stand apart in the source and are kept apart here. Blank lines part the entries; values can stand above or below the substance they belong to.
What was measured:
[1] = molecular target: D3H44 Fab heavy chain L124E_K145M_Q179E; assay: LCCA, SPR of light chain tags; L1:L2 DNA 1:3 normalized to 1:1; competitor m8
[2] = molecular target: D3H44 Fab heavy chain L124E_K145T_Q179E; assay: as above
[3] = molecular target: D3H44 Fab heavy chain L124R_S186R; assay: as above
[4] = molecular target: D3H44 Fab heavy chain L124E_K145T_Q179E; assay: LCCA, SPR of light chain tags; L1:L2 DNA 1:3 normalized to 1:1; competitor m9
[5] = molecular target: D3H44 Fab heavy chain L124R_S186R; assay: as above
[6] = molecular target: D3H44 Fab heavy chain L124E_L143D_K145T (H1 of LCCA sets 9214, 9217, 9216, 9219, 9220, 9225, 9228, 9229); assay: LCCA: H1 co-expressed with L1 and L2 (DNA 333:250:749 ng), His-tag capture on SPR chip, light chain tags detected with anti-HA/anti-FLAG; competitor L1 Q124K_V133G_S176R_T178K
[7] = molecular target: D3H44 Fab heavy chain L124E_L143E_K145M (H1 of LCCA sets 9269, 9266, 9267, 9260, 9262, 9263); assay: as above
[8] = molecular target: D3H44 Fab heavy chain L124E_L143E_K145M (H1 of LCCA sets 9269, 9266, 9267, 9260, 9262, 9263); assay: LCCA: H1 co-expressed with L1 and L2 (DNA 333:250:749 ng), His-tag capture on SPR chip, light chain tags detected with anti-HA/anti-FLAG; competitor L1 Q124K_V133G_S176R_T178R
[9] = molecular target: D3H44 Fab heavy chain L124R_D146N_Q179K; assay: LCCA, SPR of light chain tags; L1:L2 DNA 1:3 normalized to 1:1; competitor m8
[10] = molecular target: D3H44 Fab heavy chain L124R_Q179K; assay: as above
[11] = molecular target: D3H44 Fab heavy chain L124R_D146N_Q179K; assay: LCCA, SPR of light chain tags; L1:L2 DNA 1:3 normalized to 1:1; competitor m9
[12] = molecular target: D3H44 Fab heavy chain L124E_L143E_K145T; assay: LCCA, SPR of light chain tags; L1:L2 DNA 1:3 normalized to 1:1; competitor m10
[13] = molecular target: D3H44 Fab heavy chain L124R_S186K; assay: as above
[14] = molecular target: D3H44 Fab heavy chain L124R_D146N_Q179K (H1 of LCCA sets 9358, 9359, 9357, 9351, 9352, 9353, 9354, 9350); assay: LCCA: H1 co-expressed with L1 and L2 (DNA 333:250:749 ng), His-tag capture on SPR chip, light chain tags detected with anti-HA/anti-FLAG; competitor L2 Q124K_V133G_Q160K_S176R
[15] = molecular target: D3H44 Fab heavy chain L124E_L143D_K145T (H1 of LCCA sets 9214, 9217, 9216, 9219, 9220, 9225, 9228, 9229)
[16] = molecular target: D3H44 Fab heavy chain L124E_L143E_K145M (H1 of LCCA sets 9269, 9266, 9267, 9260, 9262, 9263)
[17] = molecular target: D3H44 Fab heavy chain L124E_L143D_K145T (H1 of LCCA sets 9214, 9217, 9216, 9219, 9220, 9225, 9228, 9229); remark: listed apart in the source
[18] = molecular target: D3H44 Fab heavy chain L124E_L143E_K145M (H1 of LCCA sets 9269, 9266, 9267, 9260, 9262, 9263); assay: LCCA: H1 co-expressed with L1 and L2 (DNA 333:250:749 ng), His-tag capture on SPR chip, light chain tags detected with anti-HA/anti-FLAG; competitor L2 V133G_S176D_T178D_T180E
[19] = molecular target: D3H44 Fab heavy chain L124E_L143D_K145T (H1 of LCCA sets 9214, 9217, 9216, 9219, 9220, 9225, 9228, 9229); assay: LCCA: H1 co-expressed with L1 and L2 (DNA 333:250:749 ng), His-tag capture on SPR chip, light chain tags detected with anti-HA/anti-FLAG; competitor L2 Q124E_V133G_S176D_T178E_T180E
[20] = molecular target: D3H44 Fab heavy chain L124E_L143E_K145M (H1 of LCCA sets 9269, 9266, 9267, 9260, 9262, 9263); assay: as above
[21] = molecular target: D3H44 Fab heavy chain L124R_S186K; assay: LCCA, SPR of light chain tags; L1:L2 DNA 1:3 normalized to 1:1; competitor m8
[22] = molecular target: D3H44 Fab heavy chain L124R_S186R (H1 of LCCA sets 9516 and 9515)
[23] = molecular target: D3H44 Fab heavy chain L124R_S186R (H1 of LCCA sets 9516 and 9515); remark: listed apart in the source
[24] = molecular target: tissue factor (TF) antigen (UniProt P13726); assay: SPR, His-captured Fab, TF as analyte, 1:1 fit; estimated (*) from a Fab differing only in L chain tag
[25] = molecular target: tissue factor (TF) antigen (UniProt P13726); assay: SPR, His-captured Fab, TF as analyte; against wild-type D3H44 Fab; KD of this row is an estimated (*) value

H1L1:H1L2 normalized median ratio (% of heavy chain paired) [1]: 6
H1L1:H1L2 normalized median ratio (% of heavy chain paired) [2]: 5
H2L2:H2L1 normalized median ratio (% of heavy chain paired) [3]: 88
H1L1:H1L2 normalized median ratio (% of heavy chain paired) [4]: 4
H2L2:H2L1 normalized median ratio (% of heavy chain paired) [5]: 85
median LCCA performance normalized to a L1:L2 DNA ratio of 1:1 (ratio H1-L1:H1-L2), H1-L2 share (ratio part of 100) [6]: 18
median LCCA performance normalized to a L1:L2 DNA ratio of 1:1 (ratio H1-L1:H1-L2), H1-L2 share (ratio part of 100) [7]: 37
median LCCA performance normalized to a L1:L2 DNA ratio of 1:1 (ratio H1-L1:H1-L2), H1-L2 share (ratio part of 100) [8]: 38
Substance: D3H44 light chain V133G_S176D_T178D_T180E

H1L1:H1L2 normalized median ratio (% of heavy chain paired) [1]: 8
H1L1:H1L2 normalized median ratio (% of heavy chain paired) [2]: 5
H2L2:H2L1 normalized median ratio (% of heavy chain paired) [9]: 83
H2L2:H2L1 normalized median ratio (% of heavy chain paired) [10]: 93
H1L1:H1L2 normalized median ratio (% of heavy chain paired) [4]: 3
H2L2:H2L1 normalized median ratio (% of heavy chain paired) [11]: 80
H1L1:H1L2 normalized median ratio (% of heavy chain paired) [12]: 5
H2L2:H2L1 normalized median ratio (% of heavy chain paired) [13]: 92
median LCCA performance normalized to a L1:L2 DNA ratio of 1:1 (ratio H1-L1:H1-L2), H1-L1 share (ratio part of 100) [14]: 74
Substance: D3H44 light chain V133G_S176D_T178E_T180E

median LCCA performance normalized to a L1:L2 DNA ratio of 1:1 (ratio H1-L1:H1-L2), H1-L1 share (ratio part of 100) [15]: 76
median LCCA performance normalized to a L1:L2 DNA ratio of 1:1 (ratio H1-L1:H1-L2), H1-L1 share (ratio part of 100) [16]: 87
median LCCA performance normalized to a L1:L2 DNA ratio of 1:1 (ratio H1-L1:H1-L2), H1-L1 share (ratio part of 100) [17]: 87
median LCCA performance normalized to a L1:L2 DNA ratio of 1:1 (ratio H1-L1:H1-L2), H1-L1 share (ratio part of 100) [18]: 62
median LCCA performance normalized to a L1:L2 DNA ratio of 1:1 (ratio H1-L1:H1-L2), H1-L1 share (ratio part of 100) [19]: 83
median LCCA performance normalized to a L1:L2 DNA ratio of 1:1 (ratio H1-L1:H1-L2), H1-L1 share (ratio part of 100) [20]: 84
Substance: D3H44 light chain Q124K_V133G_S176R_T178R

H1L1:H1L2 normalized median ratio (% of heavy chain paired) [1]: 8
H2L2:H2L1 normalized median ratio (% of heavy chain paired) [21]: 92
H2L2:H2L1 normalized median ratio (% of heavy chain paired) [3]: 92
median LCCA performance normalized to a L1:L2 DNA ratio of 1:1 (ratio H1-L1:H1-L2), H1-L1 share (ratio part of 100) [22]: 95
median LCCA performance normalized to a L1:L2 DNA ratio of 1:1 (ratio H1-L1:H1-L2), H1-L1 share (ratio part of 100) [23]: 94
median LCCA performance normalized to a L1:L2 DNA ratio of 1:1 (ratio H1-L1:H1-L2), H1-L2 share (ratio part of 100) [6]: 15
Substance: D3H44 light chain Q124E_V133G_S176D_T178D_T180E

Kd [24]: 0.16 nM
Change in median values of KD compared to wild type (-(log(KD design)-log(KD wt))) [25]: -0.01 log
Substance: D3H44 Fab heterodimer H1L1 of LCCA Set # 9104 (H1 L124E; L1 S131T_V133G_S176R_T178Y)

Source: US11306156
